Here are results for one molecule from patent US10471162B2, “Collagen targeted imaging probes” (priority 2014, dated 2019).

The test system of this data set is pulmonary fibrosis, C57/BL6 mice (bleomycin or sham). The conditions noted are these: mouse, in vivo. On the procedure:
Pulmonary fibrosis was induced in 7-8-week-old male C57/BL6 mice by transtracheal administration of bleomycin (BM; 2.5 U/kg) in 50 μL of PBS under direct vision using a small cervical incision. Sham animals received only PBS. Animals were placed in a small-animal PET/SPECT/CT scanner (Triumph; TriFoil Imaging), equipped with inhalation anesthesia and heating pad. Each animal was anesthetized with isoflurane (4% for induction, 1-1.5% for maintenance in medical air). After placement of an in-dwelling catheter in the femoral vein for probe administration, mice were positioned in the PET-CT and the probe was given as a bolus as the PET acquisition began. Mice were imaged continuously by PET for 120 minutes. […] Instrument calibration was performed with phantoms containing small known amounts of radioactivity. […] Reconstructed PET/CT data were quantitatively evaluated using AMIDE software package (Loening and Gambhir, 2003). […] The radioactivity concentration within organs was obtained from mean pixel values within the VOI volume and converted to counts per milliliter per minute and then divided by the injected dose (ID) to obtain an imaging VOI-derived percentage of the injected radioactive dose per cubic centimeter of tissue (% ID/cc). […] Instrument calibration was performed with phantoms containing small known amount of radioactivity. […]

Molecules are shown by their SMILES.

With `CC(C)C[C@H](NC(=O)[C@@H]1CSSC[C@H](NC(=O)[C@H](Cc2c[nH]cn2)NC(=O)[C@H](Cc2c[nH]c3ccccc23)NC(=O)[C@H](CCCCNC(=O)CNC(=O)CCC(C(=O)O)N2CCN(CC(=O)O)CCN(CC(=O)O)CC2)NC(=O)CNC(=O)CCC(C(=O)O)N2CCN(CC(=O)O)CCN(CC(=O)O)CC2)C(=O)N[C@@H]([C@@H](C)O)C(=O)N[C@@H]([C@@H](C)O)C(=O)N[C@@H](CCCCNC(=O)CCC(C(=O)O)N2CCN(CC(=O)O)CCN(CC(=O)O)CC2)C(=O)N[C@@H](Cc2ccccc2)C(=O)N2CCC[C@H]2C(=O)N[C@@H](Cc2c[nH]cn2)C(=O)N[C@@H](Cc2c[nH]cn2)C(=O)N[C@@H](Cc2ccc(O)cc2)C(=O)N1)C(=O)N[C@@H](Cc1ccc(O)cc1)C(=O)N[C@@H](Cc1ccc(-c2ccccc2)cc1)C(N)=O` (single isomer, unassigned) [CBP8], the “Mean PET activity in heart and muscle, BM-treated vs sham, in words” value is on record as “not significantly different”.
